Assay: yeast display, Sf9 membrane polyspecificity reagent, FACS + sequencing; frameworks hold sequencing errors
Outline: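 Nanobodies from a synthetic yeast display library (Saccharomyces cerevisiae BJ5465), induced 36–48 hours with galactose, were stained 1 hour at 4 °C with 10% biotinylated, detergent-solubilized Sf9 membrane reagent, enriched on streptavidin microbeads, then FACS-sorted. Anti-HA (expression) and streptavidin (reagent binding) fluorescence set low and high (top ~1%) gates. Polyreactivity labels come from the gate of origin. Genes were colony-PCR amplified, MiSeq 2 × 250 sequenced and filtered by CDR length.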

Sequence	polyreactivity (PSR sort gate)
QVQLVESGGGLVQAGGSLRLSCAASGSIFDIYAMGWYRQAPGKERELVADITISGGSTYYADSVKGRFTISRDNAKNTVYLQMNSLKPEDTAVYYCAADVTVVLGYKYDYWGQGTQVTVSS	low polyreactivity
QVQLVESGGGLVQAGGSLRLSCAASGSIFDIYGMGWYRQAPGKERELVASISRGAGSTNYADSVKGRFTISRDNAKNTVYLQMNSLKPEDTAVYYCAAEVYVPDYFQHKFDVEYEYWGQGTQVTVSS	low polyreactivity
QVQLVESGGGLVQAGGSLRLSCAASGSIFDKNAMGWYRQAPGKERELVAAIRRTSTTYYADSVKGRFTISRDNAKKTVYLQMNSLKPEDTAVYYCAATYGSGYWYPRYYYWGQGTQVTVSS	high polyreactivity
QVQLVESGGGLVQAGGSLRLSCAASGSIFDLIAMGWYRQAPGKERELVAAISSGGGTYYADSVKGRFTISRDNAKNTVYLQMNSLKPEDTAVYYCNRVTRWTYNYWGQGTQVTVSS	high polyreactivity
QVQLVESGGGLVQAGGSLRLSCAASGSIFDLYAMGWYRQAPGKERELVAAINSGGSTYADSVKGRFTISRDNSKNTVYLQMNSLKPEDTAVYYCNADYRHSLGSGYDYWGQVTQVTVSS	low polyreactivity
QVQLVESGGGLVQAGGSLRLSCAASGSIFDLYAMGWYRQAPGKERELVDAISSGATTNYADSVKGRFTISRDNAKNTVYLQMNSLKPEDTAVYYCAKYYRISSLYVIVSAYDYWGQGTQVTVSS	low polyreactivity
QVQLVESGGGLVQAGGSLRLSCAASGSIFDNYAMGWYRQAPGKEREFVAGISWSGGSTRYADSVKGRFTISRDNAKNTVYLQMNSLKPEDTAVYYCNTGYGLVDFLYGYYYWGQGTQVTVSS	low polyreactivity
QVQLVESGGGLVQAGGSLRLSCAASGSIFDPNAMGWYRQAPGKERELLADIDSSDGSTYYADSVKGRFTISRDNAKNTVYLQMNSLKPEDTAVYYCNARYGGWVWSTYDHWGQGTQVTVSS	low polyreactivity
QVQLVESGGGLVQAGGSLRLSCAASGSIFDPNAMGWYRQAPGKERELVANITNGGRTNYADSVKGRFTISRDNAKNTVYLQMNSLKPEDTAVYYCAKDSPFTSVTVLAPIIYDSWGQGTQVTVSS	low polyreactivity
QVQLVESGGGLVQAGGSLRLSCAASGSIFDPYAMGWSRQAPGKEREFVAAISYSAGSTYYADSVKGRFTISRDNAKNTVYLQMNSLKPEATAVYYCAARYTHTSPSIRSWAYYYWGQGTQVTVSS	high polyreactivity
QVQLVESGGGLVQAGGSLRLSCAASGSIFDPYAMGWYRQAPGKERELVAGISFSGGRTYYADSVKGRFTISRDNAKNTVYLQMNSLKPEDTAVYYCNKLLTQGAYPYYFWGQGTQVTVSS	high polyreactivity
QVQLVESGGGLVQAGGSLRLSCAASGSIFDPYAMGWYRQAPGKERELVAVINDGGRTTYADSVKGRFTISRDNAKNTVYLQMNSLKPEDTAVYYCAATYYFSRWDLFGYWGQGTQVTVSS	low polyreactivity
QVQLVESGGGLVQAGGSLRLSCAASGSIFDRNAMGWYRQAPGKERELVAAITSGGSTYYADSVKGRFTISRDNAKNTVYLQMNSLKAEDTAVYYCNADADPPVPLYYWGQGTQVTVSS	low polyreactivity
QVQLVESGGGLVQAGGSLRLSCAASGSIFDRNAMGWYRQAPGKERELVAAITSGGSTYYADSVKGRFTISRDNAKNTVYLQMNSLKPEDTGVYYCNADADPPVPLYYWGQGTQVTVSS	low polyreactivity
QVQLVESGGGLVQAGGSLRLSCAASGSIFDRNAMGWYRQAPGKERELVATITWSGVSTYYADSVKGRFTISRDNAKNTVYLQMNSLKPEDTAVYYCNADYSYRHWYDPGQYGQAMGYWGLGTQVTVSS	low polyreactivity
QVQLVESGGGLVQAGGSLRLSCAASGSIFDRYALGWYRQAPGKERELVAAISTGGSTNYADSVKGRFTISRDNAKNTVYLQMNSLKPEDTAVYYCAAERYWVFHGTISYKYDYWGQGSQVTVSS	low polyreactivity
QVQLVESGGGLVQAGGSLRLSCAASGSIFDSYVMGCYRQAPGTERELVAAITYSGGSTYADSVKGRFTISRDNAKNTVYLQMNSLKPEDTAVYYCAADYYRGRYSYRYDYWGQGTQVTVSS	low polyreactivity
QVQLVESGGGLVQAGGSLRLSCAASGSIFDSYVMGWYRQAPGKERELVAAITYSGGSTYADSVKGRFTISRDNAKNTVYLQMNSLKPEDTAVYYCAAASYFYLYLLEDYWGQGTQVTVSS	low polyreactivity
QVQLVESGGGLVQAGGSLRLSCAASGSIFDVNAMGWYRQAPGKERELVAAISDSGGSTYYADSVKGRFTISRDNAKNTVYLQMNSLKPEDTAVYYCNADWYWYNYYDFDYWGQGTQVTVSS	low polyreactivity
QVQLVESGGGLVQAGGSLRLSCAASGSIFDVNAMGWYRQAPGKERELVAAISDSGGSTYYADSVKGRYTISRDNAKNTVYLQMNSLKPEDTAVYYCNADWSWYNYYDFDYWGQGTQVTVSS	low polyreactivity
QVQLVESGGGLVQAGGSLRLSCAASGSIFDVNAMGWYRQAPGKERELVAAISDSTTSTYYADSVKGRFTISRDNAKNTVYLQMNSLKPEDTAVYYCNTPGLPIDSEYDYWGQGTQVTVSS	low polyreactivity
QVQLVESGGGLVQAGGSLRLSCAASGSIFDVNAMGWYRQAPGKERELVAAISQRGTRTYYADSVKGRFTISRDNAKNTVYLQMNSLKAEDTAVYYCNRGGWRQYDSWGQGTQVTVSS	high polyreactivity

Sequence	polyreactivity (PSR sort gate)
QVQLVESGGGLVQAGGSLRLSCAASGSIFDVNPMGWYRQAPGKERELVAAISQRGTRTYYADSVKGRFTISRDNAKNTVYLQMNSLKPEDTAVYSCNRGGWRQYDSWGQGTQVTVSS	high polyreactivity
QVQLVESGGGLVQAGGSLRLSCAASGSIFDVNTMGWYRQAPGKERELVAAISRGGSTNYADSVKGRFTISRDNAKNTVYLQMNSLKPEDTAVYYCNKRYQNQYDYWGQGTQVTVSS	low polyreactivity
QVQLVESGGGLVQAGGSLRLSCAASGSIFDVNTMGWYRQAPGKERELVAAITNGDRTNYADSVKGRFTISRDNAKNTVYLQMNSLKPEDTAVYYCNTDQGTTSDYGYWGQGTQVTVSS	low polyreactivity
QVQLVESGGGLVQAGGSLRLSCAASGSIFDVYAMGWYRQAPGKERELVAAITFSGGSTYYADSVKWRFTISRDNAKNTVYLQMNSLNPEDTAVYYCSVSRSYLYPVYGYYTWLGDYWGQGTQVTVSS	low polyreactivity
QVQLVESGGGLVQAGGSLRLSCAASGSIFDVYAMGWYRQAPGQERELVAAISRGDSTNYADSVKGRFTISRDNAKNTVYLQMNSLKPEDTAVYYCAADCYYWGSGWRYDSWGQGTQVTVSS	low polyreactivity
QVQLVESGGGLVQAGGSLRLSCAASGSIFDVYTMGWSRQAPGKERELVAAISKRSGRTYYADSVKGRFTISRDNAKNTVYLQMNSLKPEDTAVYYCAARGYPTTAVTYDYWGQGTQVTVSS	low polyreactivity
QVQLVESGGGLVQAGGSLRLSCAASGSIFDVYTMGWYRPAPGKERELVAAISWSGGSTFYADSVKGRFTISRDNAKNTVYLQMNSLKPEDTAVYYCAAELSLGNYWYDFWGQGTQVTVSS	high polyreactivity
QVQLVESGGGLVQAGGSLRLSCAASGSIFDVYVMGWYRQAPGKERELVAAITSTGSTNYADSVKGRFTISRDNAKNTVYLQMNSLKPEDTAVYYCATDGVYKHIQVLYDYWGQGTQVTVSS	low polyreactivity
QVQLVESGGGLVQAGGSLRLSCAASGSIFDWNGMGWYRQAPGKERELVAAITWRGGRTYYADSVKGRFTISRDNAKNTVYLQMNSLKPEDTAVYYCAATRFFYSRYNYWGQGTQVTVSS	high polyreactivity
QVQLVESGGGLVQAGGSLRLSCAASGSIFDWYVMGWYRQAPGKERELVAAITSGGSTNYADSVKGRFTISRDNAKNTVYLQMNSLKPEDTAVYFCAADTVSFSILYDYWGQGTQVTVSS	low polyreactivity
QVQLVESGGGLVQAGGSLRLSCAASGSIFDYNAMGWNRQAPGKDRELVAAISSGGSTYYADSVKGRFTISRDNAKNTVYLQMNSLKPEDTAVYYCAVKFWMVIQFDYWGQGTQVTVSS	low polyreactivity
QVQLVESGGGLVQAGGSLRLSCAASGSIFDYNAMGWYRQAPGKEREFVAAISSSAGSTYYADSVKGRFTISRDNAKNTVYLEMNSLKPEDTAVYYCAADWYDFSFPYYEYEYWGQGTQVTVSS	low polyreactivity
QVQLVESGGGLVQAGGSLRLSCAASGSIFDYNAMGWYRQAPGKEREFVAAISSSAGSTYYADSVKGRFTISRDNAKNTVYLQMNSLKPEDTAVYYCAARYQSPFRTYRFGMDYWGQGTQVTVSS	low polyreactivity
QVQLVESGGGLVQAGGSLRLSCAASGSIFDYNAMGWYRQAPGKERELVAAISRSGGSTYYADSVKGRFTISRDNAKNTVYLQMNSLKPEDTAVYYCAALPSRPRGYDYWGHGTQVTVSS	high polyreactivity
QVQLVESGGGLVQAGGSLRLSCAASGSIFDYNAMGWYRQAPGKERELVASISGDSGSTYYADSVKGRFTISRDNAKNTDYLQMNSLKPEDTAVYYCAAPYVSWDYRYYYWGQGTQVTLSS	low polyreactivity
QVQLVESGGGLVQAGGSLRLSCAASGSIFDYNTMGWYRQAPGKERELVAAISSGGSTYYADSVKGRFTISRDNAKNTVYLQMNSLKPEDTAVYYCAARRAGWWGFYYWGQATQVTVSS	high polyreactivity
QVQLVESGGGLVQAGGSLRLSCAASGSIFDYTAMGWYRQAPGKERELVASIRWSGGRTYYADSVKGRFTISRDNAKNTVYLQMNSLKPEDTAVYYCNRKPQEYVLQGSSNGYDYWGQGTQVTVSS	low polyreactivity
QVQLVESGGGLVQAGGSLRLSCAASGSIFDYYALGWYRQAPGKERELVATITSGVSTYYADSVKGRFTISRDNAKNTVYLQMNSLKPEDTAVYYCARDYAKSQDLYKYDYWGQGTQVTLSS	low polyreactivity
QVQLVESGGGLVQAGGSLRLSCAASGSIFDYYAMGWYRPAPVKERELVAAISDSGSTYYADSVKGRFTISRDNAKNTVYLQMNSLKPEDTAVYYCAAVLWSPYLSEPLETYEYWGQGTQVTVSS	low polyreactivity
QVQLVESGGGLVQAGGSLRLSCAASGSIFDYYAMGWYRQAPGKERELVAAISRSGTTNYADSVKGRFTISRDNAKNTVYFQMNSLKPEDTAVYYCNARTRGYRYTSALYYWGQGTQVTVSS	high polyreactivity
QVQLVESGGGLVQAGGSLRLSCAASGSIFDYYAMGWYRQAPGKERELVAAISTSTSSTYYADSVKGRFTISRDNAKNTVYLQMNSLKPEDTAVYYCAAEGESQPESPGYDYWGQGTQVTVSS	low polyreactivity

From the nanobody polyreactivity screen of Harvey et al. (2022)
